Experimental data published in US20240254223A1 (published 2024).

Target: His-tagged human CD47 (human, UniProt Q08722 19-139)
Sequence (Q08722 19-139): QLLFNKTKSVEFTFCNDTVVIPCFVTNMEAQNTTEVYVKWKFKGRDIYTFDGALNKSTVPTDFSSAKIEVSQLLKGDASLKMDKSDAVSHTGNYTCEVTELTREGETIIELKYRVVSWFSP

B1: pNOVI V2K K33 (antibody, V domains shown)
VH: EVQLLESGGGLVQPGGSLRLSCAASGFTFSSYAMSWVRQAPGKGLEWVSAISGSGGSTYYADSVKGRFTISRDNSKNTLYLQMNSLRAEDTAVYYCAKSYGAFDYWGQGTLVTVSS
VL: DIQMTQSPSSLSASVGDRVTITCRASQSISSYLNWYQQKPGKAPKLLIYAASSLQSGVPSRFSGSGSGTDFTLTISSLQPEDFATYYCQQFHKRSPQKFGQGTKVEIKR
Kd: 56 nM
